Experimental data: PMC8379094 (Cell Reports, 2021)

Assays:
[1] = molecular target: SARS-CoV-2 spike S1 subunit, wild type, recombinant (SARS-CoV-2, WT (QHD43416, Wuhan-Hu-1), UniProt P0DTC2); experiment: BLI
[2] = molecular target: SARS-CoV-2 spike receptor binding domain, wild type, recombinant (Severe acute respiratory syndrome …, UniProt P0DTC2); experiment: BLI

B1: BL6 mAb (antibody, V domains shown)
VH: EVQLVESGGGLVQPGRSLRLSCEVSGFTFEDYDMQWVRQAPGKGLEWVSGISWNGGIIGYGDSVKGRFTISRDNAKNSLYLQMNSLRGEDTALYSCAKALHSGDDSGQQAFDIWGQGTMVTVSS
VL: SYVLTQPPSVSVAPGQTAKITCGENNIGRRSVHWYQQKPGQAPVLVIFNDSDRPSGIPERFSGSMSGNTATLTISRVEAGDEADYYCQVWDSGSDHVVFGGGTELTVL
B1: binds [1]; binds [2].
